The values below come from patent WO2015070078A1.

For assay [1], the target named is human FcγRIIIA (CD16A), variant at 158 not stated (human) (UniProt P08637). The assay is described as follows: cell-based or functional assay. Also on record: unit not given beside the values.
The target of the next assay is mouse FcγRIIb (mouse) (UniProt P08101). Description: ELISA, recombinant mouse FcγRIIb coated on the plate.
The target in the next assay is mouse FcγRIV (mouse). Description: ELISA, recombinant mouse FcγRIV coated on the plate.
Assay [2] deals with human FcγRIIIa (158V variant) (human) (UniProt P08637). The assay is described as follows: flow cytometry titration on CHO cells expressing human FcγRIIIa-158V. A general note: Flow cytometry measures light scatter and fluorescence of single cells or particles in a stream.
Assay [3] addresses human FcγRIIIa 158F variant (human) (UniProt P08637). The assay is described as follows: flow cytometry titration on CHO cells expressing human FcγRIIIa-158F.
Another assay concerns the target human FcγRIIb (human) (UniProt P31994). Description: flow cytometry on CHO cells expressing human FcγRIIb; antibody as dimeric complex with PE-conjugated Fab'2 anti-human Fab'2.

In the case of ESK1 (antibody), the EC50 of reverse signaling through FcγRIIIA (CD16A): NFAT-luciferase reporter in Jurkat cells with RMF-pulsed T2 cells in assay [1] came to 0.88.

Regarding “ESK1 containing D265A/P329A mutations in the Fc domain (antibody)”, in assay [1], the EC50 of reverse signaling through FcγRIIIA (CD16A): NFAT-luciferase reporter in Jurkat cells with RMF-pulsed T2 cells is > 10000.

As for “ESKM (produced in MAGE 1.5 CHO cells, no detectable fucose or galactose) (antibody)”, the affinity as a fraction of that of ESK1 in the assay with mouse FcγRIIb (mouse) came out at 0.5 fold. Moreover, in the assay with mouse FcγRIV (mouse), the higher affinity (against ESK1) is 51%. The substance further displayed a higher affinity (against normally glycosylated ESK1) in assay [2] of 80%. For the same substance, the fold higher affinity (against normally glycosylated ESK1) in assay [3] amounted to 3.5 fold. This substance showed a reduced affinity (against normally glycosylated ESK1) with human FcγRIIb (human) of 50%.

In the case of “ESKM having 100% reduced fucose content relative to ESK1 wildtype IgG1 (GlymaxX technology, CHO cells) (antibody)”, the EC50 of reverse signaling through FcγRIIIA (CD16A): NFAT-luciferase reporter in Jurkat cells with RMF-pulsed T2 cells in assay [1] was determined as 0.17.
